In publication PMC9482650, “Quantitative fragmentomics allow affinity mapping of interactomes” (Nature Communications, 2022):

Columns and labels:
Assay in all cases: holdup assay
Parameters in all cases: key: below the threshold = too weak to quantify, mostly under pKd 3.1 to 4
MAGI1_1, Q96QZ7 = molecular target: MAGI1_1, Q96QZ7
ARHGEF11, O15085 = molecular target: T1, ARHGEF11, O15085
T1 sequence (O15085 42-136, limits assumed, looked up): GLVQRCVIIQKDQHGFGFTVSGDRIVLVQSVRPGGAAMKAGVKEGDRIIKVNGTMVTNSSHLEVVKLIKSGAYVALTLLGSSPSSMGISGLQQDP

Inadl_4, Q8NI35 = molecular target: Inadl_4, Q8NI35
Chain of Inadl_4, Q8NI35 (Q8NI35 547-651): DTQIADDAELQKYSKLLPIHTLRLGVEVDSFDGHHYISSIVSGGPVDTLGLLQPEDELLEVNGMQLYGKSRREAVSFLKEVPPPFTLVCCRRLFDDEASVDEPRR

HTRA4, P83105 = molecular target: T2, HTRA4, P83105
T2 sequence (P83105 378-476, limits assumed, looked up): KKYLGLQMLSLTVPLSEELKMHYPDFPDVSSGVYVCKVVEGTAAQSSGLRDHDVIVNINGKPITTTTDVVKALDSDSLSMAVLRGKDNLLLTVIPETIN

Inadl_6, Q8NI35 = molecular target: Inadl_6, Q8NI35
Chain of Inadl_6, Q8NI35 (Q8NI35 1058-1167): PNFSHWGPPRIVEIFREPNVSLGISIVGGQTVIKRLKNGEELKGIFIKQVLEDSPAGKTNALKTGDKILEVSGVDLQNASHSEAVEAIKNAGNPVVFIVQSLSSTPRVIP

DVL3, Q92997 = molecular target: T3, DVL3, Q92997
T3 sequence (Q92997 244-331, limits assumed, looked up): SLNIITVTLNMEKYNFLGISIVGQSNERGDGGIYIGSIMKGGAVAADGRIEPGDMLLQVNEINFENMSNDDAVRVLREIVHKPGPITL

LNX2_2, Q8N448 = molecular target: T4, LNX2_2, Q8N448
T4 sequence (Q8N448 334-432, limits assumed, looked up): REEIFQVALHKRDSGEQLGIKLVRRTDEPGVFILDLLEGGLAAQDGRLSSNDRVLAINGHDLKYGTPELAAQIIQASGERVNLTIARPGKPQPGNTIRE

GRIP1_5, Q9Y3R0 = molecular target: T5, GRIP1_5, Q9Y3R0
T5 sequence (Q9Y3R0 568-668, limits assumed, looked up): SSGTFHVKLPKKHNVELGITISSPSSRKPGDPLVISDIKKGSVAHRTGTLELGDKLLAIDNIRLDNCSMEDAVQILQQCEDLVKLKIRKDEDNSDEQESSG

LDB3, O75112 = molecular target: LDB3, O75112
Chain of LDB3, O75112 (O75112 1-94): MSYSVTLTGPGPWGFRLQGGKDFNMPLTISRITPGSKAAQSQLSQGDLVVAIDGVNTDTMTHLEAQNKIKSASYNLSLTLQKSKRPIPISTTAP

DLG4_1, P78352 = molecular target: DLG4_1, P78352
Chain of DLG4_1, P78352 (P78352 62-152): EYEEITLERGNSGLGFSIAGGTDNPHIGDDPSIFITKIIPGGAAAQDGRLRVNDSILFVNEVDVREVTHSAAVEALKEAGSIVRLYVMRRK

TJP2_1, Q9UDY2 = molecular target: TJP2_1, Q9UDY2
Chain of TJP2_1, Q9UDY2 (Q9UDY2 24-128): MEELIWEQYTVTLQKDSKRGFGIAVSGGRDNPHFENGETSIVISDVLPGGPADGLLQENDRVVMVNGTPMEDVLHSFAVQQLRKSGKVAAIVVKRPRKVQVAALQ

PDZRN4_1, Q6ZMN7 = molecular target: PDZRN4_1, Q6ZMN7
Chain of PDZRN4_1, Q6ZMN7 (Q6ZMN7 213-318): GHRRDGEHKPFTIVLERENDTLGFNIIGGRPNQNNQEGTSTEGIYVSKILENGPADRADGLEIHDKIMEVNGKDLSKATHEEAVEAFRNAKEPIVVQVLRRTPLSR

MAGI2_6, Q86UL8 = molecular target: MAGI2_6, Q86UL8
Chain of MAGI2_6, Q86UL8 (Q86UL8 1141-1229): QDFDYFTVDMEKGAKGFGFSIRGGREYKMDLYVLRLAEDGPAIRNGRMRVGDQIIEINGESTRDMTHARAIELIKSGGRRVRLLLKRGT

FRMPD4, Q14CM0 = molecular target: FRMPD4, Q14CM0
Chain of FRMPD4, Q14CM0 (Q14CM0 67-160): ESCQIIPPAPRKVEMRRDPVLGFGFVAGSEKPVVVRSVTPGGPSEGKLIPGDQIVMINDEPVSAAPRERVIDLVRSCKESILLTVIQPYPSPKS

GRIP1_3, Q9Y3R0 = molecular target: T6, GRIP1_3, Q9Y3R0
T6 sequence (Q9Y3R0 247-346, limits assumed, looked up): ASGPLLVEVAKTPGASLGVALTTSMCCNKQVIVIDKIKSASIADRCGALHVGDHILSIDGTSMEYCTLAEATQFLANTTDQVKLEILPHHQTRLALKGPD

APBA2_1, Q99767 = molecular target: T7, APBA2_1, Q99767
T7 sequence (Q99767 563-664, limits assumed, looked up): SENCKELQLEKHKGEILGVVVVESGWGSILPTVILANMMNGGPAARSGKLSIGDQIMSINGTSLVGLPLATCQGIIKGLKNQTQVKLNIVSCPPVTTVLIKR

DLG1_1, Q12959 = molecular target: DLG1_1, Q12959
RHPN1, Q8TCX5 = molecular target: T8, RHPN1, Q8TCX5
T8 sequence (Q8TCX5 508-602, limits assumed, looked up): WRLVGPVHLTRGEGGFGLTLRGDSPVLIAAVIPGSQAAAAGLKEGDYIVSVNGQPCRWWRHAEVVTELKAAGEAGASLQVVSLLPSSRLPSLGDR

MAGI2_4, Q86UL8 = molecular target: MAGI2_4, Q86UL8
Chain of MAGI2_4, Q86UL8 (Q86UL8 772-865): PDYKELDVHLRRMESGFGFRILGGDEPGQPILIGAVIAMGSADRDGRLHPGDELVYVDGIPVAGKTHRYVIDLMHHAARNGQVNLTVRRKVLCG

Inadl_5, Q8NI35 = molecular target: Inadl_5, Q8NI35
Chain of Inadl_5, Q8NI35 (Q8NI35 673-780): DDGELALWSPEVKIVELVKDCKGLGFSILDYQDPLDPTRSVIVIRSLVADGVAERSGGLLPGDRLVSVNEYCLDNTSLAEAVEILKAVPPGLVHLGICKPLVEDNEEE

FRMPD2_3, Q68DX3 = molecular target: FRMPD2_3, Q68DX3
Chain of FRMPD2_3, Q68DX3 (Q68DX3 1073-1166): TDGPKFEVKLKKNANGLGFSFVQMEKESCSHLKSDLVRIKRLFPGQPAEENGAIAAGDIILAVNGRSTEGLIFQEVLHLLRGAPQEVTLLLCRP

MAGI1_2, Q96QZ7 = molecular target: MAGI1_2, Q96QZ7
Chain of MAGI1_2, Q96QZ7 (Q96QZ7 456-580): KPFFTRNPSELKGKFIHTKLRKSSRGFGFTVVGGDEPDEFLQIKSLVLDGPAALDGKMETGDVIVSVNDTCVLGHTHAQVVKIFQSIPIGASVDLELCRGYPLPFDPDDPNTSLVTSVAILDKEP

SNTG1, Q9NSN8 = molecular target: T9, SNTG1, Q9NSN8
T9 sequence (Q9NSN8 52-150, limits assumed, looked up): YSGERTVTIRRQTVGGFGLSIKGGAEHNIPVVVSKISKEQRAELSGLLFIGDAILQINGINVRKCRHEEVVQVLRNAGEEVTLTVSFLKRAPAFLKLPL

GRIP2_5, Q9C0E4 = molecular target: GRIP2_5, Q9C0E4
Chain of GRIP2_5, Q9C0E4 (Q9C0E4 544-642): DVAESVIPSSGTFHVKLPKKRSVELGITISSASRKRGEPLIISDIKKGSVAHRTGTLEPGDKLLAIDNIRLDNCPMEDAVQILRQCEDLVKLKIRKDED

Inadl_2, Q8NI35 = molecular target: Inadl_2, Q8NI35
Chain of Inadl_2, Q8NI35 (Q8NI35 238-335): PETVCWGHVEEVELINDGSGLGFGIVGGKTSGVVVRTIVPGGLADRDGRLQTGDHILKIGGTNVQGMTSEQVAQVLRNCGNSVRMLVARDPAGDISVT

NHERF3_1, Q5T2W1 = molecular target: T10, NHERF3_1, Q5T2W1
T10 sequence (Q5T2W1 4-100, limits assumed, looked up): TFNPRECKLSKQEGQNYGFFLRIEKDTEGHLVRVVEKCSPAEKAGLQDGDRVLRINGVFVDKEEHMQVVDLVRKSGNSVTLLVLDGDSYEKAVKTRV

DLG3_1, Q92796 = molecular target: T11, DLG3_1, Q92796
T11 sequence (Q92796 125-227, limits assumed, looked up): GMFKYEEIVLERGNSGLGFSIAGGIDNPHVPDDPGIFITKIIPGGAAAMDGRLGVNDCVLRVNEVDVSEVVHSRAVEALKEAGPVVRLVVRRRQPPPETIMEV

[1] = plain residues with an end cap or a label only (N-terminal biotin on a linker: ahx)
[2] = plain residues with an end cap or a label only (N-terminal biotin on a linker: ttds)

Chain of MAGI1_1, Q96QZ7 (Q96QZ7 1-106): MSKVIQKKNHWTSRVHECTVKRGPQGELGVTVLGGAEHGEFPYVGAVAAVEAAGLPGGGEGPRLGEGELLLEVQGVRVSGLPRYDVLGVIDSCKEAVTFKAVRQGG

## ESLLLGPSNF [SHROOM4, Q9ULL8]
MAGI1_1, Q96QZ7; [1]
  pKd: below the threshold
ARHGEF11, O15085; [1]
  pKd: below the threshold
Inadl_4, Q8NI35; [1]
  pKd: below the threshold
HTRA4, P83105; [1]
  pKd: below the threshold
Inadl_6, Q8NI35; [1]
  pKd: below the threshold
DVL3, Q92997; [1]
  pKd: below the threshold
LNX2_2, Q8N448; [1]
  pKd: below the threshold
GRIP1_5, Q9Y3R0; [1]
  pKd: below the threshold
LDB3, O75112; [1]
  pKd: below the threshold
DLG4_1, P78352; [1]
  pKd: below the threshold
TJP2_1, Q9UDY2; [1]
  pKd: below the threshold
PDZRN4_1, Q6ZMN7; [1]
  pKd: below the threshold
MAGI2_6, Q86UL8; [1]
  pKd: below the threshold
FRMPD4, Q14CM0; [1]
  pKd: below the threshold
GRIP1_3, Q9Y3R0; [1]
  pKd: below the threshold
APBA2_1, Q99767; [1]
  pKd: below the threshold
DLG1_1, Q12959; [1]
  pKd: below the threshold
RHPN1, Q8TCX5; [1]
  pKd: below the threshold
MAGI2_4, Q86UL8; [1]
  pKd: below the threshold
Inadl_5, Q8NI35; [1]
  pKd: below the threshold
FRMPD2_3, Q68DX3; [1]
  pKd: below the threshold
MAGI1_2, Q96QZ7; [1]
  pKd: below the threshold
SNTG1, Q9NSN8; [1]
  pKd: below the threshold
GRIP2_5, Q9C0E4; [1]
  pKd: below the threshold
Inadl_2, Q8NI35; [1]
  pKd: below the threshold
NHERF3_1, Q5T2W1; [1]
  pKd: below the threshold
DLG3_1, Q92796; [1]
  pKd: below the threshold

## SDSSGQEYSL [KCTD3, Q9Y597]
MAGI1_1, Q96QZ7; [1]
  pKd: below the threshold
ARHGEF11, O15085; [1]
  pKd: 3.98
Inadl_4, Q8NI35; [1]
  pKd: below the threshold
HTRA4, P83105; [1]
  pKd: below the threshold
Inadl_6, Q8NI35; [1]
  pKd: below the threshold
DVL3, Q92997; [1]
  pKd: below the threshold
LNX2_2, Q8N448; [1]
  pKd: below the threshold
GRIP1_5, Q9Y3R0; [1]
  pKd: below the threshold
LDB3, O75112; [1]
  pKd: below the threshold
DLG4_1, P78352; [1]
  pKd: below the threshold
TJP2_1, Q9UDY2; [1]
  pKd: below the threshold
PDZRN4_1, Q6ZMN7; [1]
  pKd: below the threshold
MAGI2_6, Q86UL8; [1]
  pKd: below the threshold
FRMPD4, Q14CM0; [1]
  pKd: 4.69
GRIP1_3, Q9Y3R0; [1]
  pKd: below the threshold
APBA2_1, Q99767; [1]
  pKd: below the threshold
DLG1_1, Q12959; [1]
  pKd: below the threshold
RHPN1, Q8TCX5; [1]
  pKd: below the threshold
MAGI2_4, Q86UL8; [1]
  pKd: below the threshold
Inadl_5, Q8NI35; [1]
  pKd: below the threshold
FRMPD2_3, Q68DX3; [1]
  pKd: below the threshold
MAGI1_2, Q96QZ7; [1]
  pKd: below the threshold
SNTG1, Q9NSN8; [1]
  pKd: below the threshold
GRIP2_5, Q9C0E4; [1]
  pKd: below the threshold
Inadl_2, Q8NI35; [1]
  pKd: below the threshold
NHERF3_1, Q5T2W1; [1]
  pKd: 3.8
DLG3_1, Q92796; [1]
  pKd: below the threshold

## SKPTRRETEV [HPV35-E6, P27228]
MAGI1_1, Q96QZ7; [2]
  pKd: below the threshold
ARHGEF11, O15085; [2]
  pKd: 4.11
Inadl_4, Q8NI35; [2]
  pKd: below the threshold
HTRA4, P83105; [2]
  pKd: below the threshold
Inadl_6, Q8NI35; [2]
  pKd: below the threshold
DVL3, Q92997; [2]
  pKd: below the threshold
LNX2_2, Q8N448; [2]
  pKd: below the threshold
GRIP1_5, Q9Y3R0; [2]
  pKd: below the threshold
LDB3, O75112; [2]
  pKd: below the threshold
DLG4_1, P78352; [2]
  pKd: 5.09
TJP2_1, Q9UDY2; [2]
  pKd: below the threshold
PDZRN4_1, Q6ZMN7; [2]
  pKd: 4.38
MAGI2_6, Q86UL8; [2]
  pKd: 3.49
FRMPD4, Q14CM0; [2]
  pKd: below the threshold
GRIP1_3, Q9Y3R0; [2]
  pKd: below the threshold
APBA2_1, Q99767; [2]
  pKd: below the threshold
DLG1_1, Q12959; [2]
  pKd: 5.02
RHPN1, Q8TCX5; [2]
  pKd: below the threshold
MAGI2_4, Q86UL8; [2]
  pKd: 4.34
Inadl_5, Q8NI35; [2]
  pKd: below the threshold
FRMPD2_3, Q68DX3; [2]
  pKd: below the threshold
MAGI1_2, Q96QZ7; [2]
  pKd: 5.13
SNTG1, Q9NSN8; [2]
  pKd: 4.31
GRIP2_5, Q9C0E4; [2]
  pKd: below the threshold
Inadl_2, Q8NI35; [2]
  pKd: below the threshold
NHERF3_1, Q5T2W1; [2]
  pKd: 4.04
DLG3_1, Q92796; [2]
  pKd: 4.45

## QRQARSETLV [HPV59-E6, Q81964]
MAGI1_1, Q96QZ7; [2]
  pKd: below the threshold
ARHGEF11, O15085; [2]
  pKd: below the threshold
Inadl_4, Q8NI35; [2]
  pKd: below the threshold
HTRA4, P83105; [2]
  pKd: 3.78
Inadl_6, Q8NI35; [2]
  pKd: below the threshold
DVL3, Q92997; [2]
  pKd: below the threshold
LNX2_2, Q8N448; [2]
  pKd: 5.04
GRIP1_5, Q9Y3R0; [2]
  pKd: below the threshold
LDB3, O75112; [2]
  pKd: below the threshold
DLG4_1, P78352; [2]
  pKd: 5.11
TJP2_1, Q9UDY2; [2]
  pKd: 3.81
PDZRN4_1, Q6ZMN7; [2]
  pKd: 4.04
MAGI2_6, Q86UL8; [2]
  pKd: 3.74
FRMPD4, Q14CM0; [2]
  pKd: below the threshold
GRIP1_3, Q9Y3R0; [2]
  pKd: below the threshold
APBA2_1, Q99767; [2]
  pKd: below the threshold
DLG1_1, Q12959; [2]
  pKd: 5.05
RHPN1, Q8TCX5; [2]
  pKd: 3.94
MAGI2_4, Q86UL8; [2]
  pKd: 5.71
Inadl_5, Q8NI35; [2]
  pKd: 3.9
FRMPD2_3, Q68DX3; [2]
  pKd: below the threshold
MAGI1_2, Q96QZ7; [2]
  pKd: 6.04
SNTG1, Q9NSN8; [2]
  pKd: 4.17
GRIP2_5, Q9C0E4; [2]
  pKd: below the threshold
Inadl_2, Q8NI35; [2]
  pKd: below the threshold
NHERF3_1, Q5T2W1; [2]
  pKd: 4.82
DLG3_1, Q92796; [2]
  pKd: 4.58
